Biological target: T1, IL-6 (interleukin-6) (human, UniProt P05231 30-212)
T1 construct: also called recombinant IL-6; human IL-6
Test: plasma IL-6 by ELISA 1, 2 and 4 h after i.v. human IL-6 (2 µg) in NSG mice given the CAR-T cells
Experimental: An NALM6 cell line stably transduced with EGFP-P2A-Luc2 (GL) (referred to as a “NALM6-GL cell line”) was administered at 2.5×10⁶ cells/mouse into the tail vein of the NSG mice (Charles River Laboratories Japan, JAX Mice Stock No: 005557). After 10 days, control cells transduced with only a CAR gene or GP130-IL6R-ca7R-transduced CAR-T cells were administered into the tail vein at 3×10⁶ cells/mouse. After another 7 days, 2 μg of human IL-6 was intravenously administered, and blood was collected at 1 hour, 2 hours, and 4 hours after the injection to measure the concentration of IL-6 in plasma by ELISA. Note that the control cells or GP130-IL6R-ca7R-transduced CAR-T cells used for the administration into the NSG mice were stimulated again with the NALM6-GL cell line on day 7 of culture and expanded, and cultured for 11 days.

B1: chimeric cytokine receptor GP130-IL6R-ca7R (receptor)
chain: ELLDPCGYISPESPVVQLHSNFTAVCVLKEKCMDYFHVNANYIVWKTNHFTIPKEQYTIINRTASSVTFTDIASLNIQLTCNILTFGQLEQNVYGITIISGLPPEKPKNLSCIVNEGKKMRCEWDGGRETHLETNFTLKSEWATHKFADCKAKRDTPTSCTVDYSTVYFVNIEVWVEAENALGKVTSDHINFDPVYKVKPNPPHNLSVINSEELSSILKLTWTNPSIKSVIILKYNIQYRTKDASTWSQIPPEDTASTRSSFTVQDLKPFTEYVFRIRCMKEDGKGYWSDWSEEASGITYEDRPGSAGSAAGSGEFVDVPPEEPQLSCFRKSPLSNVVCEWGPRSTPSLTTKAVLLVRKFQNSPAEDFQEPCQYSQESQKFSCQLAVPEGDSSFYIVSMCVASSVGSKFSKTQTFQGCGILQPDPPANITVTAVARNPRWLSVTWQDPHSWNSSFYRLRFELRYRAERSKTFTTWMVKDLQHHCVIHDAWSGLRHVVQLRAQEEFGQGEWSEWSPEAMGTPWTESRSPPAENEVSTPMQALTTNKDDDNILFRDSANATSLPVQDSSSVPLPAAANNSSGEMDPILLPPCLTISILSFFSVALLVILACVLWKKRIKPIVWPSLPDHKKTLEHLCKKPRKNLNVSFNPESFLDCQIHRVDDIQARDEVEGFLQDTFPQQLEESEKQRLGGDVQSPNCPSEDVVITPESFGRDSSLTCLAGNVSACDAPILSSSRSLDCRESGKNGPHVYQDLLLSLGTTNSTLPPPFSLQSGILTLNPVAQGQPILTSLGSNQEEAYVTMSSFYQNQ
notes: Expressed on the surface of human CAR-T cells; also called GP130-IL6R-ca7R(WT)
binding result: binds

Reference: patent US20240352088A1 (AICHI PREFECTURE, published 2024)
